18 sequences from the supplement of paper PMC9170038 can be followed below.

The test system of this data set is MS2 coat protein. The data set can be described thus: apparent KD of MS2 coat protein; higher = weaker reporter binding. The settings on record: Eterna round: R107. An outline of the steps:
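Designed RNA switches were made by on-chip transcription from Illumina sequencing clusters and then titrated with SNAP-549-labelled MS2 coat protein. Twofold steps ran from 0.7 or 1.5 nM to 3 µM, each lasting 0.8–1.5 h early and 10–20 min late, in 100 mM Tris-HCl pH 7.5, 80 mM KCl, 4 mM MgCl2, without or with constant ligand. Apparent KD is the per-design median of normalised cluster binding-curve fits.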

Setting [1] is: input ligand: theophylline 20 uM.
Where [2] appears, read: input ligand: tryptophan 2.4 mM.
The mark [3] stands for this setting: input ligand: theophylline 2 mM.

In the case of “AUGUCAUUGGUGCAGCUGUUAAAUGGCGAUACCAGCGUGGAAACACGCCCUUGGCAGCGCCAAAACAUGAGGAUCACCCAUGUUA [Zlin]”, the “apparent KD of MS2 coat protein” value is, setting by setting: (input ligand: arginine 13.2 mM) 0.023 µM; under setting [1], 0.0546 µM; under setting [2], 0.0271 µM.

On to “AUGUCGUUGAAUACAGCGGCAUGGAGUGAUACCAGAAUGAUCAAAUUCCCUUGGCAGCAUGACAUGAGGAUCACCCAUGUUCGAU [SSTheo A #15]”, for which the “apparent KD of MS2 coat protein” value was 0.0343 µM (input ligand: arginine 13.2 mM), 0.0613 µM under setting [1] and 0.0775 µM under setting [2].

In the case of “AUGUUGGUCUGAAGGAGCGCGAUAACAUGAGGAUCACCCAUGUUAAAUGGUACAUGAUACUCGCAGGUAGGUCGCAGUACGACAA [Same State Arginine B GF 13]”, the “apparent KD of MS2 coat protein” value (input ligand: arginine 13.2 mM) was determined as 0.0186 µM; the “apparent KD of MS2 coat protein” value (input ligand: none) turned out to be 0.0207 µM; the “apparent KD of MS2 coat protein” value under setting [1] was determined as 0.0297 µM; the “apparent KD of MS2 coat protein” value under setting [3] was 0.0322 µM; the “apparent KD of MS2 coat protein” value under setting [2] stood at 0.0251 µM.

Turning to “AUUAAUAGUUGUGAUACCAGACGAACAUGAGGAUCACCCAUGUAACUUAAGAGUGUUGAUGUCCCUUGGCAGCACUGUUUAGUUA [JR_SSTheophyB_Sub015]”, the “apparent KD of MS2 coat protein” value reads like this: (input ligand: arginine 13.2 mM) 0.0595 µM; under setting [1], 0.105 µM; under setting [2], 0.0915 µM.

Consider “AUUAAUAGUUGUGAUACCAGACGAACAUGAGGAUCACCCAUGUAACUUUUAGGUGUUGUAGUCCCUUGGCAGCACUAUGUAGUUA [JR_SSTheophyB_Sub013]”, for which the “apparent KD of MS2 coat protein” value turned out to be 0.0311 µM (input ligand: arginine 13.2 mM), 0.0445 µM under setting [1] and 0.0326 µM under setting [2].

As for “AUUAUCAUGGUCAUAUAUAUAUCGUCAGAUACCAGACUAGAUAUAGUCCCUUGGCAGCUGUUACAUGAGGAUCACCCAUGUUAUA [JR_ExcTheophyA_Sub015]”, the “apparent KD of MS2 coat protein” value amounted to 0.0435 µM (input ligand: arginine 13.2 mM), 0.0801 µM under setting [1] and 0.0887 µM under setting [2].

For “CAACAAGUAACUGAUACCAGUGUACUGACAUGAGGAUCACCCAUGUUGGGUUUUGUUGUACACCCUUGGCAGCAGAAUCUUGUUG [AstrosExyTheB#21]”, the “apparent KD of MS2 coat protein” value (input ligand: arginine 13.2 mM) came out at 0.0447 µM, the “apparent KD of MS2 coat protein” value under setting [1] stood at 0.0677 µM and the “apparent KD of MS2 coat protein” value under setting [2] came out at 0.05 µM.

Regarding “CACAUGAGGAUCACCCAUGUCUGAACUGAAGGAGCGCUAAACAAGGCAGGUAGGUCGCGGAAUCCUGUGUGCAUAUGCACACGGG [9.W]”, the “apparent KD of MS2 coat protein” value is 0.0306 µM (input ligand: arginine 13.2 mM); 0.018 µM (input ligand: none); 0.027 µM under setting [1]; 0.0261 µM under setting [3]; 0.0215 µM under setting [2].

Consider “CACAUGAGGAUCACCCAUGUCUGAACUGAAGGAGCGCUAAAUAAGGCAGGUAGGUCGCGGAAUCCUGUGUGCAUAUGCACACGGG [9.X]”, for which the “apparent KD of MS2 coat protein” value runs as follows: (input ligand: arginine 13.2 mM) 0.0207 µM; (input ligand: none) 0.0226 µM; under setting [1], 0.0305 µM; under setting [3], 0.0289 µM; under setting [2], 0.0198 µM.

“CACUAUGAGGUCGAUACCAGUACUGAGUUGUACAUGAGGAUCACCCAUGUAAAUGUUCGCUACCCUUGGCAGCGAUAACAUUGCA [theeternabot_sameState_MS2_Theo_B_34]”: the “apparent KD of MS2 coat protein” value by setting is: (input ligand: arginine 13.2 mM) 0.0738 µM; under setting [1], 0.331 µM; under setting [2], 0.246 µM.

On to “CAUACUUUAGUAUGACGUGUGGGCAGUGAUACCAGAUACGAAAGUAUCCCUUGGCAGCACAACAUGAGGAUCACCCAUGUAAUUA [Theophylline A 1]”, for which the “apparent KD of MS2 coat protein” value was 0.0219 µM (input ligand: arginine 13.2 mM), 0.0266 µM under setting [1] and 0.0231 µM under setting [2].

As to “CAUUGUUAGACGGCCGCCACUUUUGGUUCGGAACGAUCGAUUGGACAUGAGGAUCACCCAUGUGGAAGGACCGGGUCUAAUCAAA [theeternabot_sameState_MS2_Trp_B_20]”, the “apparent KD of MS2 coat protein” value runs as follows: (input ligand: arginine 13.2 mM) 0.083 µM; (input ligand: none) 0.165 µM; under setting [1], 0.328 µM; under setting [3], 0.265 µM; under setting [2], 0.134 µM.

Turning to “CCAUACGUAACUGAUACCAGUGUACUGACAUGAGGAUCACCCAUGUUGGGUUUUGUUGUACACCCUUGGCAGCAGAAUCGUAUGG [AstrosExyTheB#19]”, the “apparent KD of MS2 coat protein” value is, setting by setting: (input ligand: arginine 13.2 mM) 0.0565 µM; under setting [1], 0.0651 µM; under setting [2], 0.0658 µM.

As for “CCCGACGAGCCUGAGAUUAAGUAAGCGGAUACCAGAGAUAGGUAGCUCCCUUGGCAGCCGUGGACAUGAGGAUCACCCAUGUCAC [theeternabot_exclusion_MS2_Theo_A_22]”, the “apparent KD of MS2 coat protein” value is 0.0114 µM (input ligand: arginine 13.2 mM), 0.0135 µM under setting [1] and 0.0109 µM under setting [2].

Regarding “CCGCCCUACCGCGAUACCAGUACGGCAGUUAACAUGAGGAUCACCCAUGUGCAAACAUAAUACCCUUGGCAGCGCCUGAAUCCAU [theeternabot_sameState_MS2_Theo_B_12]”, the “apparent KD of MS2 coat protein” value (input ligand: arginine 13.2 mM) stood at 0.0157 µM, the “apparent KD of MS2 coat protein” value under setting [1] worked out at 0.0292 µM and the “apparent KD of MS2 coat protein” value under setting [2] was 0.0156 µM.

With “CGAACAUGAGGAUCACCCAUGUUAACCGAAGGAGCGGCGCAUAAGUCAGGUAGGUCGCGGUAGAUGAAAUAGAGCAGUGGUGACA [#01 Same State - Arginine A]”, the “apparent KD of MS2 coat protein” value is, setting by setting: (input ligand: arginine 13.2 mM) 0.0244 µM; (input ligand: none) 0.0317 µM; under setting [1], 0.045 µM; under setting [3], 0.032 µM; under setting [2], 0.027 µM.

As to “CGAUGAUCGAGGGAUACCAGAAAUGGUAUUCCUUUAUUUCUUACAUGAGGAUCACCCAUGUUCCCUUGGCAGCUUUUGAUCAUCG [ETHB #7]”, the “apparent KD of MS2 coat protein” value reads like this: (input ligand: arginine 13.2 mM) 0.0605 µM; under setting [1], 0.0861 µM; under setting [2], 0.0746 µM.

As to “CGCAACCAACAUGAGGAUCACCCAUGUGAAGGAGCGCCGAAUAAGGCAGGUAGGUCGCACAUGAAUAAAUCAUGAAGGAAGCGAA [XArg-A 12 NuPack]”, the “apparent KD of MS2 coat protein” value runs as follows: (input ligand: arginine 13.2 mM) 0.0205 µM; (input ligand: none) 0.0368 µM; under setting [1], 0.0438 µM; under setting [3], 0.0512 µM; under setting [2], 0.0315 µM.
